Substrate in this series: O=C(/C=C/c1ccc(O)c(O)c1)O[C@@H]1C[C@](O)(C(=O)O)C[C@@H](O)[C@H]1O
Put plainly: purified protein. Particulars: tri-buffer (0.1 M acetic acid, 0.1 M Tris, 20 mM MES) pH 6, 30°C, 15 min, hydrolysis.

B1: CiCQE3 (Cichorium intybus) (protein)
chain: CYPSIISFGDSLADTGNVKEMASKSNVHAPHFLFPPYGETFFNKPTGRCSNGRLIIDFVAESLGLPLIPPSLGSKTNVHVTGLGQGVNYAVAGATALDSSFHEERGVEIWTNASLGVQLGWFKDSLSSICSSVADCRQLIGQSLVLMGEIGGNDYNHALVAGKSIDEVETYVPFVINTIVSAVNELIELGAETLVIPGNLPIGCSAAYLTIFYGSSEVQYDNSTGCIITLNKLAEYHNEFLQKKLHQIRELHPDVNIIYADYYNAAMQFFRSPNKYGFTNGALKACCGGGGPFNYNPSIDCADPASTSCAQPDTYVNWDGLHLTEAAYRVIFKSIFEGSYTTPRFNALCPTSMLQGVGGFSSSI
As usually defined, the Km is the substrate concentration at which the rate is half of its maximum. One may read the kcat as the maximal rate divided by the concentration of active sites. Turning to B1, the Michaelis-Menten constant (Km) was 1740 µM and the kcat came out at 0.466 s⁻¹.
